Measurements: article PMC8517087, “Analysis of M4 Transmembrane Segments in NMDA Receptor Function: A Negative Allosteric Modulatory Site at the GluN1 M4 is Determining the Efficiency of Neurosteroid Modulation” (Frontiers in Pharmacology, 2021)

Assays:
[1] = target: GluN1/GluN2A^ΔM4 receptor (rat | mouse) (UniProt P35439)
[2] = target: GluN1^ΔM4/GluN2A^F637A receptor (rat | mouse) (UniProt P35439)
[3] = target: GluN1^ΔM4/GluN2A receptor (M4-truncated core receptor) (rat | mouse) (UniProt P35439)

Substance “M4^N1, isolated GluN1 M4 fragment (GluN 1^802–925) (from UniProt P35439 802-925) (domain or fragment)” has a rescue of agonist-induced current: Imax by TEVC in oocytes co-expressing M4^N1 with GluN1/GluN2A^ΔM4 [1] of 0.016 µA and a rescued Imax current (TEVC) of GluN1^ΔM4/GluN2A^F637A co-expressed with M4^N1, normalised to the unmutated receptor [2] of 50 % decrease.
Work on “M4^N1-F817A (from UniProt P35439 802-925) (domain or fragment)” yielded a rescue of agonist-induced current (TEVC) in oocytes co-expressing M4^N1-F817A with GluN1^ΔM4/GluN2A, compared with wt M4^N1 [3] of 90 % decrease.
“M4^N2A, isolated GluN2A M4 fragment (GluN2A^804–1464) (from UniProt P35436 804-1464) (domain or fragment)” was tested, and the rescue of agonist-induced current: Imax by TEVC in oocytes co-expressing M4^N2A with GluN1/GluN2A^ΔM4 [1] was 0.24 µA.
